Measurements reported in patent US20240409645A1.

Columns and labels:
[1] = biological target: cynomolgus monkey IL-2Rγ/CD132 subunit (cynomolgus monkey); experiment: ELISA, monovalent VHH-hFc
[2] = biological target: T1, human common cytokine receptor γ-chain (γc; IL-2Rγ; CD132), recombinant protein (human) (UniProt P31785); experiment: ELISA, monovalent VHH-hFc
T1 sequence: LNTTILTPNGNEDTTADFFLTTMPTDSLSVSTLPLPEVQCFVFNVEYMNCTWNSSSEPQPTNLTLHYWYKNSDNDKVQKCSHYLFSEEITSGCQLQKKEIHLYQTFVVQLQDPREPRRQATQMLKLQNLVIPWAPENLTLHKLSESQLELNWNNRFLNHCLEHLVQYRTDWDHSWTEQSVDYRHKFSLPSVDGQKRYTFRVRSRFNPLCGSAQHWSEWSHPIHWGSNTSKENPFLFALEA

[3] = biological target: cynomolgus monkey IL-2Rγ/CD132 subunit (cynomolgus monkey); experiment: ELISA, monovalent; EC50 cyno vs human subunit
[4] = biological target: T2, cynomolgus monkey IL-2Rβ/CD122 subunit (cynomolgus monkey) (UniProt Q38J85); experiment: ELISA, monovalent VHH-hFc
T2 sequence (looked up): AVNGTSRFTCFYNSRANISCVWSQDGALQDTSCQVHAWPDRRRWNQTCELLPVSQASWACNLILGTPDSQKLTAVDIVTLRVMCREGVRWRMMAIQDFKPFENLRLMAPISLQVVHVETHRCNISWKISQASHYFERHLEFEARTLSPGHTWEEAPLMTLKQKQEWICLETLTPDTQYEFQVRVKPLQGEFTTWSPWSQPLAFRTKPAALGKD

[5] = biological target: T3, human interleukin-2 receptor β-chain (IL-2Rβ; CD122), recombinant protein (human) (UniProt P14784); experiment: ELISA, monovalent VHH-hFc
T3 sequence: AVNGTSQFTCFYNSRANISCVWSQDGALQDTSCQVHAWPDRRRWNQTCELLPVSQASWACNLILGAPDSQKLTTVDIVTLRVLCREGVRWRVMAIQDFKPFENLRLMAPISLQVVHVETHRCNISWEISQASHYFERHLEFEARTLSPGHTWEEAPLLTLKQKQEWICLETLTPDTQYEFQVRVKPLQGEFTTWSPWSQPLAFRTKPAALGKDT

[6] = biological target: T2, cynomolgus monkey IL-2Rβ/CD122 subunit (cynomolgus monkey); experiment: ELISA, monovalent; EC50 cyno vs human subunit
[7] = biological target: T4, mouse IL-2Rγ (mouse) (UniProt P34902); experiment: P.E. binding ELISA
T4 sequence (looked up): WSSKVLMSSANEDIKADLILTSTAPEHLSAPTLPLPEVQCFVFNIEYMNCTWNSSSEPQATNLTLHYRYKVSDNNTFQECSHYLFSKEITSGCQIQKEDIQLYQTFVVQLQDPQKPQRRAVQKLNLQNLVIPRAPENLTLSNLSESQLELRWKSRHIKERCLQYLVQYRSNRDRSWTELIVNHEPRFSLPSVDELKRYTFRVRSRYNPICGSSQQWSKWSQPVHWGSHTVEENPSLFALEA

[8] = biological target: T5, mouse IL-2Rα (mouse) (UniProt P01590); experiment: P.E. binding ELISA
T5 sequence (looked up): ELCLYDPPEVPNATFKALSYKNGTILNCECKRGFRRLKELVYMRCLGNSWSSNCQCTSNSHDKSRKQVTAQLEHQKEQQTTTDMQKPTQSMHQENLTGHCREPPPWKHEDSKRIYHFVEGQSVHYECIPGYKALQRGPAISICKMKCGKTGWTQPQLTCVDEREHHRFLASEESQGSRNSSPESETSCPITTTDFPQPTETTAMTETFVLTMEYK

Sequence of cynomolgus monkey IL-2Rγ/CD132 subunit (cynomolgus monkey) (chain, as listed by the source): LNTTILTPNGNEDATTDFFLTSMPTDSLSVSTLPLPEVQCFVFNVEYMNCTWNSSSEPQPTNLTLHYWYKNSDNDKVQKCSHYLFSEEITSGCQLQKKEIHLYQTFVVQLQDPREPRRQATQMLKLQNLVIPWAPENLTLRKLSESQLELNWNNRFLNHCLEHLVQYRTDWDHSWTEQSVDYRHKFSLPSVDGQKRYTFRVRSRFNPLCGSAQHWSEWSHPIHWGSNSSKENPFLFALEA

B1: 28-MP04D02 VHH-hFc, monospecific monovalent (Fc fusion, part only; not given: Both Fc arms and linker, not shown: another chain or arm of the molecule; a dimerising Fc or GST; large carriers; small tags and cut ends)
VHH: QVQLVESGGGLVQAGGSLRLSCAASGRTLSRYAMGWFRQAPGKEREFVTANSWGGDTYYADSVQGRFTFSRDNAKNTVYLQMNSLQPEDTAVYYCAAAPTSFATTAYSGSNSYAYWGQGTQVTVSS
- EC50 [1]: 0.723 nM
- EC50 [2]: 0.62 nM
- Fold change [3]: 1.2 fold

B2: 36-MP07F02 VHH-hFc, monospecific monovalent (Fc fusion, part only; not given: Both Fc arms and linker, not shown: another chain or arm of the molecule; a dimerising Fc or GST; small tags and cut ends)
VHH: QVQLVESGGGLVQAGGSLRLSCAASGRTLSRYAMGWFRQAPGSEREFVAASSWGGDTFYADSVEGRFTFSRDNAKNAVYLQMNSLQPEDTAAYYCAAAPTSFPTTAYSSSNSYAYWGQGTQVTVSS
- EC50 [1]: 0.222 nM
- EC50 [2]: 0.145 nM

B3: 37-MP07F09 VHH-hFc, monospecific monovalent (Fc fusion, part only; not given: Both Fc arms and linker, not shown: another chain or arm of the molecule; a dimerising Fc or GST; small tags and cut ends)
VHH: QVQLVESGGGLVQAGGSLRLSCAASGRTLSRYAMGWFRQAPGKEREYVAIDSWGGDTFYADSVEGRFTFSRDNAKNEVYLQMNSLQPEDTAVYYCAGAPTSFATTAYSSSNSYRYWGQGTQVTVSS
- EC50 [1]: 0.097 nM
- EC50 [2]: 0.081 nM
- Fold change [3]: 1.2 fold

B4: 17-MP02C09 VHH-hFc, monospecific monovalent (Fc fusion, part only; not given: Both Fc arms and linker, not shown: another chain or arm of the molecule; a dimerising Fc or GST; large carriers; small tags and cut ends)
VHH: QVQLQESGGGLVQAGGSLRLSCVASGSVSSINGMAWYRQGADNQRVLVAAISRVGNTAYGDSVKGRFTISRQNARNTVYLQMNSLKPEDTAVYYCNADSWGGDDYWGQGTQVTVSS
- EC50 [4]: 0.495 nM
- EC50 [5]: 0.148 nM
- Fold change [6]: 3.3 fold

B5: 29-MP04H02 VHH (periplasmic extract) (VHH)
VHH: QVQLVESGGGLVQAGGSLRLACVASGLTFDNYYMGWFRQAPGKEREFVAGIIWNGDHTAYADSIKGRFTISRDNAKNTAYLRMNSLKPEDTAVYYCAATFWIERATTPDIGQYAYWGQGTQVTVSS
- OD450 nm [7]: 0.05 OD450 nm

B6: 29-MP04H02 VHH-hFc, monospecific monovalent (Fc fusion, part only; not given: Both Fc arms and linker, not shown: another chain or arm of the molecule; a dimerising Fc or GST; large carriers; small tags and cut ends)
VHH: QVQLVESGGGLVQAGGSLRLACVASGLTFDNYYMGWFRQAPGKEREFVAGIIWNGDHTAYADSIKGRFTISRDNAKNTAYLRMNSLKPEDTAVYYCAATFWIERATTPDIGQYAYWGQGTQVTVSS
- EC50 [1]: 0.534 nM
- EC50 [2]: 0.683 nM
- Fold change [3]: 0.8 fold

B7: 22-MP03F12 VHH-hFc, monospecific monovalent (Fc fusion, part only; not given: Both Fc arms and linker, not shown: another chain or arm of the molecule; a dimerising Fc or GST; large carriers; small tags and cut ends)
VHH: EVQLVESGGGLVQAGGSLRLSCAASGSIFSINAMAWFRQVPGMERELVAAISRDGGASVYRDSVKGRFTISRDNSKNTVYLQMNTLKPEDTAIYVCAATRAIGWTARWITTDFDFWGQGTQVTVSS
- EC50 [4]: 0.156 nM
- EC50 [5]: 0.092 nM
- Fold change [6]: 1.7 fold

B8: 35-MP07G01 VHH (periplasmic extract) (VHH)
VHH: QVQLQESGGGLVQGGGSLRLSCAASGGIFSSYAMGWFRQAPGKEREFVAAISRSGRSTNYADSVKGRFTISRDNAKSTVYLQMNSLKPEETAVYYCAAGRYYNSAYDPSPGDFGSWGHGTQVTVSS
- OD450 nm [7]: 0.045 OD450 nm

B9: 6-MP01G05 VHH (periplasmic extract) (VHH)
VHH: QVQLQESGGGLVQAGGSLRLSCAASGRTFSSYAMGWFRQAPGKEREFVAVISWNVDNTEYTDSVKGRFTISRDNDKNMVYLQMNSLKPEDTAVYYCAADSIPLSSDMSPTATEYGYWGQGTQVTVSS
- OD450 nm [8]: 0.046 OD450 nm

B10: 23-MP06F03 VHH-hFc, monospecific monovalent (Fc fusion, part only; not given: Both Fc arms and linker, not shown: another chain or arm of the molecule; a dimerising Fc or GST; large carriers; small tags and cut ends)
VHH: QVQLVESGGGLVQAGGSLRLSCAVSGDVFVRYTMAWFRQAPGKEREFVASVTDSGRTTDYVHSVKGRFTVSRDNAKNTVYLQMNNLKPEDTAVYYCAANTDYFQIKSLDANTWGQGTQVTVSS
- EC50 [4]: 0.26 nM
- EC50 [5]: 0.174 nM
- Fold change [6]: 1.5 fold

B11: 26-MP06A07 VHH-hFc, monospecific monovalent (Fc fusion, part only; not given: Both Fc arms and linker, not shown: another chain or arm of the molecule; a dimerising Fc or GST; large carriers; small tags and cut ends)
VHH: QVQLQESGGGLVQAGGSLRLSCAASGDVFVRYTMAWFRQAPGKEREFVASVTDSGRTTEYVDSVKGRFTVSRDNAKNTAYLQMNNLKPEDTAIYYCAANTDYFQIRSLDLNTWGQGTQVTVSS
- EC50 [4]: 0.102 nM
- EC50 [5]: 0.086 nM
- Fold change [6]: 1.2 fold
